Experimental findings from patent publication US12116424 (WISCONSIN ALUMNI RESEARCH FOUNDATION, dated 2024) are described below.

Common to all, as to assay: cell-based or functional assay
The target of test [1] is T1, L. monocytogenes AgrC (Listeria monocytogenes (EGD-e)).
The target in test [2] is T1, L. monocytogenes AgrC. The source holds these as a separate data set.
Test [3] addresses T1, L. monocytogenes AgrC. The source holds these as a separate data set.

Read-outs that look alike come from different tables or passages of the source. Bridges are numbered along the chain shown (N, C = ends). Where no end group is shown, it is not given here. [ ]: non-standard residue; d: D form.

As for NAAKYNPCASYL (bridge 8-C) [Se AIP-III], in the test with L. monocytogenes AgrC [1], the “Max Activation (agr-GFP reporter, ΔagrD strain)” value is 8.73% and the “Max Inhibition (agr-GFP reporter, wild-type strain)” value turned out to be 0%.

B1: Se AIP-I D1AS6A (peptide)
peptide: ASVCAAYF
modifications: not fully specified; thiolactone ring Cys4-Phe8 (Cys side chain to C-terminal carboxyl)
For B1, in the test with L. monocytogenes AgrC [1], the “Max Activation (agr-GFP reporter, ΔagrD strain)” value turned out to be 12.4% and the “Max Inhibition (agr-GFP reporter, wild-type strain)” value was 0%.

B2: 8-mer (peptide)
peptide: SKACFMFV
modifications: not fully specified; thiolactone ring Cys4-Val8 (Cys side chain to C-terminal carboxyl)
Consider B2, for which, in the test with L. monocytogenes AgrC [2], the “EC50 (agr-GFP reporter, ΔagrD strain)” value came to 68.6 nM; the “IC50 (agr-GFP reporter, wild-type strain)” value (“IC50” for short) worked out at 842 nM; the “Max Activation (agr-GFP reporter, ΔagrD strain)” value was 71.5%; the “Max Inhibition (agr-GFP reporter, wild-type strain)” value was 29.4%.

B3: 12-mer (peptide)
peptide: DSSMSKACFMFV
modifications: not fully specified; thiolactone ring Cys8-Val12 (Cys side chain to C-terminal carboxyl)
For B3, in the test with L. monocytogenes AgrC [2], the “EC50 (agr-GFP reporter, ΔagrD strain)” value was 43.4 nM; the “Max Activation (agr-GFP reporter, ΔagrD strain)” value was 116%; the “Max Inhibition (agr-GFP reporter, wild-type strain)” value worked out at 0.26%.
Take KACFMFV (bridge 3-C; also: thiolactone: Cys3 side chain to C-terminal carboxyl) [7-mer, K-A-(C-F-M-F-V)]: in the test with L. monocytogenes AgrC [2], the “EC50 (agr-GFP reporter, ΔagrD strain)” value was determined as 61.7 nM; the “IC50” value turned out to be 866 nM; the “Max Activation (agr-GFP reporter, ΔagrD strain)” value worked out at 64.6%; the “Max Inhibition (agr-GFP reporter, wild-type strain)” value was found to be 38.3%.

B4: 13-mer (peptide)
peptide: ADSSMSKACFMFV
modifications: not fully specified; thiolactone ring Cys9-Val13 (Cys side chain to C-terminal carboxyl)
As for B4, in the test with L. monocytogenes AgrC [2], the “EC50 (agr-GFP reporter, ΔagrD strain)” value is 29 nM; the “Max Activation (agr-GFP reporter, ΔagrD strain)” value turned out to be 108%; the “Max Inhibition (agr-GFP reporter, wild-type strain)” value turned out to be 0%.

B5: 9-mer (peptide)
peptide: MSKACFMFV
modifications: not fully specified; thiolactone ring Cys5-Val9 (Cys side chain to C-terminal carboxyl)
Turning to B5, in the test with L. monocytogenes AgrC [2], the “EC50 (agr-GFP reporter, ΔagrD strain)” value amounted to 23.5 nM; the “IC50” value is 416 nM; the “Max Activation (agr-GFP reporter, ΔagrD strain)” value was 93.6%; the “Max Inhibition (agr-GFP reporter, wild-type strain)” value came out at 8.89%.

B6: 10-mer (peptide)
peptide: SMSKACFMFV
modifications: not fully specified; thiolactone ring Cys6-Val10 (Cys side chain to C-terminal carboxyl)
For B6, in the test with L. monocytogenes AgrC [2], the “EC50 (agr-GFP reporter, ΔagrD strain)” value turned out to be 21.5 nM; the “Max Activation (agr-GFP reporter, ΔagrD strain)” value is 110%; the “Max Inhibition (agr-GFP reporter, wild-type strain)” value stood at 0%.

B7: 15-mer (peptide)
peptide: KVADSSMSKACFMFV
modifications: not fully specified; thiolactone ring Cys11-Val15 (Cys side chain to C-terminal carboxyl)
B7: in the test with L. monocytogenes AgrC [2], the “EC50 (agr-GFP reporter, ΔagrD strain)” value came out at 22.2 nM; the “Max Activation (agr-GFP reporter, ΔagrD strain)” value was determined as 122%; the “Max Inhibition (agr-GFP reporter, wild-type strain)” value worked out at 0.23%.

B8: Sa AIP-IV (peptide)
peptide: YSTCYFIM
modifications: not fully specified; thiolactone ring Cys4-Met8 (Cys side chain to C-terminal carboxyl)
Take B8: in the test with L. monocytogenes AgrC [1], the “Max Activation (agr-GFP reporter, ΔagrD strain)” value came out at 9.81% and the “Max Inhibition (agr-GFP reporter, wild-type strain)” value stood at 8.56%.

B9: 14-mer (peptide)
peptide: VADSSMSKACFMFV
modifications: not fully specified; thiolactone ring Cys10-Val14 (Cys side chain to C-terminal carboxyl)
With B9, in the test with L. monocytogenes AgrC [2], the “EC50 (agr-GFP reporter, ΔagrD strain)” value was 39.9 nM; the “Max Activation (agr-GFP reporter, ΔagrD strain)” value came out at 105%; the “Max Inhibition (agr-GFP reporter, wild-type strain)” value is 0%.

B10: Sa AIP-I (peptide)
peptide: YSTCDFIM
modifications: not fully specified; thiolactone ring Cys4-Met8 (Cys side chain to C-terminal carboxyl)
On to B10, for which, in the test with L. monocytogenes AgrC [1], the “Max Activation (agr-GFP reporter, ΔagrD strain)” value was 12.2% and the “Max Inhibition (agr-GFP reporter, wild-type strain)” value is 1.29%.
On to KKCFMFV (bridge 3-C; also: thiolactone: Cys3 side chain to C-terminal carboxyl) [7-mer A2K], for which, in the test with L. monocytogenes AgrC [3], the “EC50 (agr-GFP reporter, ΔagrD strain)” value amounted to 185 nM; the “IC50” value was 359 nM; the “Max Activation Observed (agr-GFP reporter, ΔagrD strain)” value came to 64.8%; the “Max Inhibition Observed (agr-GFP reporter, wild-type strain)” value (“Max Inhibition Observed” for short) worked out at 51.8%.
As for INCAFLL (bridge 3-C; also: thiolactone: Cys3 side chain to C-terminal carboxyl) [Sa AIP-III D4A], in the test with L. monocytogenes AgrC [1], the “Max Activation (agr-GFP reporter, ΔagrD strain)” value is 12.3% and the “Max Inhibition (agr-GFP reporter, wild-type strain)” value worked out at 5.87%.
For the molecule KA[dC]FMFV (bridge 3-C; also: thiolactone: dCys3 side chain to C-terminal carboxyl) [7-mer C3dC], in the test with L. monocytogenes AgrC [3], the “IC50” value is 3800 nM; the “Max Activation Observed (agr-GFP reporter, ΔagrD strain)” value came out at 7.08%; the “Max Inhibition Observed” value stood at 49.3%.
Regarding KA[dC]F[dM]FV (bridge 3-C; also: thiolactone: dCys3 side chain to C-terminal carboxyl) [7-mer C3dC/M5dM], in the test with L. monocytogenes AgrC [3], the “IC50” value came out at 1290 nM; the “Max Activation Observed (agr-GFP reporter, ΔagrD strain)” value was 7.89%; the “Max Inhibition Observed” value was found to be 88.9%.

B11: Sa AIP-II (peptide)
peptide: GVNACSSLF
modifications: not fully specified; thiolactone ring Cys5-Phe9 (Cys side chain to C-terminal carboxyl)
As to B11, in the test with L. monocytogenes AgrC [1], the “Max Activation (agr-GFP reporter, ΔagrD strain)” value stood at 12% and the “Max Inhibition (agr-GFP reporter, wild-type strain)” value was 0%.

B12: 11-mer (peptide)
peptide: SSMSKACFMFV
modifications: not fully specified; thiolactone ring Cys7-Val11 (Cys side chain to C-terminal carboxyl)
As for B12, in the test with L. monocytogenes AgrC [2], the “EC50 (agr-GFP reporter, ΔagrD strain)” value is 14.3 nM; the “Max Activation (agr-GFP reporter, ΔagrD strain)” value is 111%; the “Max Inhibition (agr-GFP reporter, wild-type strain)” value stood at 3.9%.
KACF[dM]FV (bridge 3-C; also: thiolactone: Cys3 side chain to C-terminal carboxyl) [7-mer M5dM]: in the test with L. monocytogenes AgrC [3], the “EC50 (agr-GFP reporter, ΔagrD strain)” value was found to be 8.29 nM; the “Max Activation Observed (agr-GFP reporter, ΔagrD strain)” value turned out to be 71.9%; the “Max Inhibition Observed” value stood at 18.5%.

B13: Se AIP-II (peptide)
peptide: NASKYNPCSNYL
modifications: not fully specified; thiolactone ring Cys8-Leu12 (Cys side chain to C-terminal carboxyl)
Regarding B13, in the test with L. monocytogenes AgrC [1], the “Max Activation (agr-GFP reporter, ΔagrD strain)” value was 8.45% and the “Max Inhibition (agr-GFP reporter, wild-type strain)” value came out at 0%.

B14: Se AIP-I (peptide)
peptide: DSVCASYF
modifications: not fully specified; thiolactone ring Cys4-Phe8 (Cys side chain to C-terminal carboxyl)
Turning to B14, in the test with L. monocytogenes AgrC [1], the “Max Activation (agr-GFP reporter, ΔagrD strain)” value is 8.65% and the “Max Inhibition (agr-GFP reporter, wild-type strain)” value amounted to 0%.
The matching figures for INCDFLL (bridge 3-C; also: thiolactone: Cys3 side chain to C-terminal carboxyl) [Sa AIP-III]: 11.3% and 0.64%.

B15: Se AIP-I D1AV3AS6A (peptide)
peptide: ASACAAYF
modifications: not fully specified; thiolactone ring Cys4-Phe8 (Cys side chain to C-terminal carboxyl)
Consider B15, for which, in the test with L. monocytogenes AgrC [1], the “Max Activation (agr-GFP reporter, ΔagrD strain)” value was found to be 12.1% and the “Max Inhibition (agr-GFP reporter, wild-type strain)” value turned out to be 0.06%.
